# Data: the DeepSol protein solubility set
# Experiment: soluble on expression in E. coli; label from the status in PepcDB or PDB records
row,Sequence,soluble on expression in E. coli
1,MACCYNSPRRLEKSFVLDGVAVSTMAQAYSIMRPKLWSAIPPYNPQLDHHSRRYFRSRVVPPILRKTDQDHGGTGRDGWIVDYFHIFGQGQRYLNRRNWAGAGHSLQQVSGHDYYNSNPKAITTGLNGRFGYRRNTPALRQHTSVFGEVTPFPISEDIASQGLTCVFKTDV,not soluble
2,MACTGYEELRKWFLDKMVNACRAIRDQKEDQSNSAAKKAMLYIQENYNKDISLDDVSGIVNISPYYFSKIFKEETGENFIEYVTKVRIEKAKEFLAQPDISIKEAGIRSGYTDPNYFSRIFKKQTDMTPSEYKTRYGK,not soluble
3,MADAEVIILPKKHKKKKERKSLPEEDVAEIQHAEEFLIKPESKVAKLDTSQWPLLLKNFDKLNVRTTHYTPLACGSNPLKREIGDYIRTGFINLDKPSNPSSHEVVAWIRRILRVEKTGHSGTLDPKVTGCLIVCIERATRLVKSQQSAGKEYVGIVRLHNAIEGGTQLSRALETLTGALFQRPPLIAAVKRQLRVRTIYESKMIEYDPERRLGIFWVSCEAGTYIRTLCVHLGLLLGVGGQMQELRRVRSGVMSEKDHMVTMHDVLDAQWLYDNHKDESYLRRVVYPLEKLLTSHKRLVMKDSAVNAICYGAKIMLPGVLRYEDGIEVNQEIVVITTKGEAICMAIALMTTAVISTCDHGIVAKIKRVIMERDTYPRKWGLGPKASQKKLMIKQGLLDKHGKPTDSTPATWKQEYVDYSESAKKEVVAEVVKAPQVVAEAAKTAKRKRESESESDETPPAAPQLIKKEKKKSKKDKKAKAGLESGAEPGDGDSDTTKKKKKKKKAKEVELVSE,soluble
4,MADEAQAPPAEGAPPAEGEAPPPAEGAEGAVEGGEAAPPAEPAEPIKHSYTLFYFNVKALAEPLRYLFAYGNQEYEDVRVTRDEWPALKPTMPMGQMPVLEVDGKRVHQSISMARFLAKTVGLCGATPWEDLQIDIVVDTINDFRLKIAVVSYEPEDEIKEKKLVTLNAEVIPFYLEKLEQTVKDNDGHLALGKLTWADVYFAGITDYMNYMVKRDLLEPYPALRGVVDAVNALEPIKAWIEKRPVTEV,soluble
5,MADETTMRAGRGPGRACGRVSGVRILVVEDEPKMTALLARALTEEGHTVDTVADGRHAVAAVDGGDYDAVVLDVMLPGIDGFEVCARLRRQRVWTPVLMLTARGAVTDRIAGLDGGADDYLTKPFNLDELFARLRALSRRGPIPRPPTLEAGDLRLDPSEHRVWRADTEIRLSHKEFTLLEALIRRPGIVHTRAQLLERCWDAAYEARSNIVDVYIRYLRDKIDRPFGVTSLETIRGAGYRLRKDGGRHALPR,not soluble
6,MADEVIEYKFTCSSFYYGRETSQVLNTSITKGLKCVWKTRYASIAEQAFFSWEFDWNELKRLGIDSLAGNITVKSASMSPLNVQIDLRKPTEIVERAFYLRDDDYAYNSYINKTTFEYSFVPYCAQVDESLYEKMFLPSDENDAILVIGNKKLHVCKAFLSYHSSFFRAIFSSAFKEGQMSEIPIKDVTYKDFALMLSTIYPDAVFPNDRTVEKLLEMGDRFIIQSVINHVEYHLLHNTSIGNEKLMWMADRYGMPKLLVKSIQQMNSIEKAKALKSSPDYAKLSKEAKEKILDRLMALI,not soluble
7,MADIQGEDLESLYGYAKQLFDGGEIAAARNVYQLLSTLDHWNFDYLLALGLCHQRLGAHNEAVVCFGRAGLIKVDDPRAAFYAGISYRLDGNAEYASKAFKAAINWCGEQIDYQAIKASAVDMLALQQEEVPLEHHHHHH,soluble
8,MADLFDEFIEPGVKNEIMDVEEAPENPMEKLDSAKKRQAREDMTNLLANMHNDVGVGNFDEATSKRARVEEEEEVEEARMENIIVHTIRTDNENCTHEVAIPPNAEFAELRENSGTEPAKYYPFQLDAFQKQAILCIDNNQSVLVSAHTSAGKTVVATYAIAKCLREKQRVIYTSPIKALSNQKYRELEEEFKDVGLMTGDVTLNPDASCLVMTTEILRSMLYRGSEIMKEVGWVVYDEIHYMRDKERGVVWEETIILMSKNIKQAFLSATIPNARQFAQWVASIKQQPVNVVYTDYRPTPLQHWIYPVGGEGMYEVVNVKGEFREDKFRDAMSGLATAGDSAGSFNKRRTGGGTQGDSNVLKIIRSVASNDGLNCIVFSFSRKECESYAISLKDMDFNKDHEKGMVKSVYESAIAQLSPEDQKLPQILNILPLLRRGIGVHHSGLMPILKETIEILFGEGLVKVLFATETFSMGLNMPARTVVFTSARKFDGSDNRYITSGEYIQMAGRAGRRGKDDRGTVILMVDSAMSADDAKQIIKGATDPLNSQFRLTYNMVLNLMRVEGMAVSWIINNSFHQFQSYAKIPEIDKKCVQVERKIASFNFPWENEMRTLVDLQDQLEATRQRIIQIQREPKYIVGFLHAGRLFKVKSGDRDFKWGILNQFKKEQNPDDRNDQIYLCDMMIAINTEGRFDPTNPATLVPGFDLPKRRWIRVPMTIDRITAISAVRLKVPADIDKPDGQMRLDGMMAAATKRFGNQIPLLDPIQDMEIKTVEMKELIAREKSLEGRLETHSMTKRDNMKDLKKQFEQKQDAVKELNALKAERKSVQSTLHLEELNNRKRVLRRLGYLGNDDALVLKGSVACELSASDELILTEMLLKGIFNTLDVAQTAALLSCFVFQDKCAAPKLATELQTCLSELHEQARNVAKVSNECKMEVMEDKYVSSFNPGLMDVVYQWVNGATFSEIVKTTDVFEGSIIRTLRRLEEVLREMINAAKALANKELEQKFEDARKNLKRDIVFAASLYL,not soluble
9,MADLRLEREFAVAPEALFAWVSDGAKLLQWWGPEGLHVPADQHDLDFTRLGPWFSVMVNGEGQRYKVSGQVTHVKPPQSVGFTWGWHDDDDRRGAESHVMFIVEPCAKGARLILDHRELGDDEMSLRHEEGWTSSLRKLAAELALEHHHHHH,soluble
10,MADYKDIVLIQSTSSLSASLGDRVTISCRASQDIRNYLNWYQQKPDGTVKLLIYYTSRLLPGVPSRFSGSGSGTDYSLTISNLEQEDIGTYFCQQGNTLPWTFGGGTKLEIRRGGGGSGGGGSGGGGSGGGGSEVQLQQSGPELVKPGASVKISCKDSGYAFSSSWMNWVKQRPGQGPEWIGRIYPGDGDTNYNGKFKGKATLTADKSSSTAYMQLSSLTSVDSAVYFCARSGLLRYAMDYWGQGTSVTVSS,soluble
11,MAEAAQAPQQQFAIQRIYLKDVSFEAPSSPVMFQKEWNPDVKLDLDTQSRELGQGVYEVVLRLTVTVKNAEETAFLCEVQQAGIFSAEQMEAGQLAHCLGAFCPNILFPYARETISSLVVKGTFPQLNLAPVNFDALFMNYLQQQAQEGATANA,not soluble
12,MAEASIEKTQILQKYLELDQRGRIIAEYVWIDGTGNLRSKGRTLKKRITSIDQLPEWNFDGSSTNQAPGHDSDIYLKPVAYYPDPFRRGDNIVVLAACYNNDGTPNKFNHRHEAAKLFAAHKDEEIWFGLEQEYTLFDMYDDVYGWPKGGYPAPQGPYYCGVGAGKVYARDMIEAHYRACLYAGLEISGINAEVMPSQWEFQVGPCTGIDMGDQLWMARYFLHRVAEEFGIKISFHPKPLKGDWNGAGCHANVSTKEMRQPGGTKYIEQAIEKLSKRHAEHIKLYGSDNDMRLTGRHETASMTAFSSGVANRGSSIRIPRSVAKEGYGYFEDRRPASNIDPYLVTGIMCETVCGAIDNADMTKEFERESS,soluble
13,MAEASSANLGSGCEEKRHEGSSSESVPPGTTISRVKLLDTMVDTFLQKLVAAGSYQRFTDCYKCFYQLQPAMTQRIYDKFIAQLQTSIREEISDIKEEGNLEAVLNALDKIVEEGKVRKEPAWCEAQRCRVQQRCSLCVQAGGQRGSEETQALPVSMAGSPSPLPGSPGAQEGGV,not soluble
14,MAEASSLVGKLETEVEIKASAKKFHHMFTERPHHVSKATPDKIHGYGKLTVGKNKIEAVDPEKNLITFKVLEGDLMNEYKSFAFTLQVTPKQGESGSIAHWHLEYEKISEEVAHPETLLQFCVEISKEIDEHLLAEE,soluble
15,MAEATVLIPAFNEEATVGRVVRVAREAGFPVVVADDGSKDETARRALEAGAEVVRLKENRGKGGAIAEGLKAVRTPFVLLLDADLLGLRPEHLFALLKPLKEGEARMAVGVFRGGRASTDLAMRLTPFLSGQRALRLEDLRSVPGLERARYDLELLLTRHAKRAGWPVVYVPMEGVSQVMKEEKRGVLAGLGHRLRMYWEILRYRLRAR,soluble
16,MAEGGAADLDTQRSDIATLLKTSLRKGDTWYLVDSRWFKQWKKYVGFDSWDKYQMGDQNVYPGPIDNSGLLKDGDAQSLKEHLIDELDYILLPTEGWNKLVSWYTLMEGQEPIARKVVEQGMFVKHCKVEVYLTELKLCENGNMNNVVTRRFSKADTIDTIEKEIRKIFSIPDEKETRLWNKYMSNTFEPLNKPDSTIQDAGLYQGQVLVIEQKNEDGTWPRGPSTPNVKNSNYCLPSYTAYKNYDYSEPGRNNEQPGLCGLSNLGNTCFMNSAIQCLSNTPPLTEYFLNDKYQEELNFDNPLGMRGEIAKSYAELIKQMWSGKFSYVTPRAFKTQVGRFAPQFSGYQQQDCQELLAFLLDGLHEDLNRIRKKPYIQLKDADGRPDKVVAEEAWENHLKRNDSIIVDIFHGLFKSTLVCPECAKISVTFDPFCYLTLPLPMKKERTLEVYLVRMDPLTKPMQYKVVVPKIGNILDLCTALSALSGIPADKMIVTDIYNHRFHRIFAMDENLSSIMERDDIYVFEININRTEDTEHVIIPVCLREKFRHSSYTHHTGSSLFGQPFLMAVPRNNTEDKLYNLLLLRMCRYVKISTETEETEGSLHCCKDQNINGNGPNGIHEEGSPSEMETDEPDDESSQDQELPSENENSQSEDSVGGDNDSENGLCTEDTCKGQLTGHKKRLFTFQFNNLGNTDINYIKDDTRHIRFDDRQLRLDERSFLALDWDPDLKKRYFDENAAEDFEKHESVEYKPPKKPFVKLKDCIELFTTKEKLGAEDPWYCPNCKEHQQATKKLDLWSLPPVLVVHLKRFSYSRYMRDKLDTLVDFPINDLDMSEFLINPNAGPCRYNLIAVSNHYGGMGGGHYTAFAKNKDDGKWYYFDDSSVSTASEDQIVSKAAYVLFYQRQDTFSGTGFFPLDRETKGASAATGIPLESDEDSNDNDNDIENENCMHTN,soluble
17,MAELHIIGQIIGATGFPQNSLFCKWGVHTGGAWRLLSGLREGQTQVDMPQTGDMAYWSHPIDLHYTTKGLQGWPKLHLQVWHQDSFGRCQLYGYGYIHVPSSPGQHRLQCVTWRPLGSWQDQLSEMFVGGGPQLRSPDLIYSGADRYRLHTVGMGTVELELCIILRHFDRYGVES,not soluble
18,MAELKDQLSLLGRKTEYKQDYAPEVLEAFDNKHPENDYWVRFNCPEFTSLCPITGQPDFAEIRISYIPDIKMVESKSLKLYLFSFRNHGAFHEDCVNIIMKDLIKLMNPKYIEVTGIFTPRGGISIYPYANYGRPGTKFEQMAEHRLMNRE,not soluble
19,MAELYVKPGNKERGWNDPPQFSYGLQTQTGGPKRTPLTKRVAAPQDGSPRAPETSGPPPVDHPPPSSKASRPPPMGSCPATGVEPPSSPVIESETLIEDVLRPLEQALEDCHGHTKKQVCDDISRRLALLREQWAGGKLSIPVKKRMALLVQELLHHQWDAADDIHRSLMVDHVTEVSQWMVGVKRLIAEKKSLSSEETKEEKFTVEPENQTIPGFQQPS,soluble
20,MAEREFDMTIEEVTIKVAPGLDYKVFGFNGQVPGPLIHVQEGDDVIVNVTNNTSLPHTIHWHGVHQKGTWRSDGVPGVTQQPIEAGDSYTYKFKADRIGTLWYHCHVNVNEHVGVRGMWGPLIVDPKQPLPIEKRVTKDVIMMMSTWESAVADKYGEGGTPMNVADYFSVNAKSFPLTQPLRVKKGDVVKIRFFGAGGGIHAMHSHGHDMLVTHKDGLPLDSPYYADTVLVSPGERYDVIIEADNPGRFIFHDHVDTHVTAGGKHPGGPITVIEYDGVPVDDWYVWKDKDYDPNFFYSESLKQGYGMFDHDGFKGEFEQRQRRPGRKLAAALEHHHHHH,soluble
